The Human Domainome abundance scans (Beltran et al. 2025)

B1: Formin-binding protein 4, residues 200 to 261; numbered along this chain, Q8N3X1 (parent)
chain: SGWQYDTQCSLAGVGIEMGDWQEVWDENTGCYYYWNTQTNEVTWELPQYLATQVQGLQHYQP

Variants of: B1
Assay: abundance fitness (aPCA) (normalised: wild type 0, dead -1); higher = more abundant; growth selection in yeast, the domain comes from the species named
Conditions: Homo sapiens

Abundance fitness: each site, then its substitutions
Q8: A 0.29, H 0.041, M -0.097, R 0.046, N -0.02, F -0.233, V -0.191, W -0.421, Y -0.267, S 0.164, L -0.369, T 0.187, P -0.568, C -0.188, I -0.445, K 0.239, E 0.123, D -0.515, G 0.105
V14: C -0.043, Y 0.365, S -0.163, W 0.055, M -0.028, A -0.06, L -0.071, H -0.09, E -0.03, K 0.116, T -0.084, R -0.01, Q 0.071, P -0.698, D -0.273, N -0.067, G 0.091
S10: M -0.521, L -0.651, Y -0.623, K -0.457, F -0.776, T -0.112, I -0.476, H -0.644, C -0.332, Q -0.498, N -0.533, A -0.266, R -0.328, W -1.03, P -0.216, D -0.472, V -0.701, G -0.148
G15: H -0.536, V -0.481, F -0.583, C -0.182, I -0.67, Q 0.1, E -0.178, D 0.132, N -0.21, M -0.321, P -0.03, K -0.073, L -0.638, R -0.071, W -0.727, S -0.11, Y -0.661, T -0.099, A 0.273
D6: I -0.228, F -0.492, C -0.342, G -0.17, T -0.139, E -0.135, V -0.829, S -0.35, P -0.706, Q -0.785, R -0.14, K 0.009, Y -0.644, A -0.354, W -0.555, H -0.282
M18: L -0.313, F -0.278, N -0.869, T -0.132, S -0.586, H -0.432, Y -0.53, A -0.685, K -0.618, W 0.025, I -0.247, G -0.545, C -0.549, Q -0.69, E -0.534, P -0.264, R -0.643
W21: C -0.804, R -0.811, I -0.859, F -0.313, N -1.1, G -0.791, H -0.297, D -0.716, A -0.948, P -0.812, V -0.82, M -0.498, T -0.792, K -1.05, E -1.03, Y -0.066, L -0.847
V24: N -0.257, Q 0.097, M -0.361, L -0.074, H -0.163, A -0.409, P -1.05, T -0.036, G -0.269, E -0.217, R -0.145, W -0.437, F -0.168, D -0.215, I -0.399
C9: I -0.171, G -0.081, P -0.365, Y -0.105, D 0.052, V 0.205, A 0.076, K 0.254, S 0.065, L 0.049, Q 0.017, T 0.22, H -0.139, W -0.377
T7: W -0.493, E -0.392, G -0.06, K -0.036, C 0.051, F -0.461, A 0.017, I -0.453, P -0.309, Q -0.012, H -0.318, S 0.002, M -0.37, V -0.262, N 0.124, L -0.452, Y -0.181, D -0.314, R -0.061
G13: V -0.424, I -0.471, E -0.161, K -0.107, C -0.103, W -0.666, S -0.171, P -0.082, Q -0.197, N -0.468, R -0.194, Y -0.578, A -0.237, L -0.187, H -0.158, M -0.158, F -0.129, T -0.009, D -0.087
E23: L -0.637, T -0.582, R -0.59, H -0.443, M -0.964, V -1.07, W -1.06, I -0.759, Y -0.58, P -0.697, S -0.682, Q -0.431, A -0.817, F -0.511, C -0.862
I16: Y -0.334, G -0.763, P -0.735, L -0.137, D -0.742, F -0.195, A -0.332, R -0.713, E -0.507, K -0.542, W -0.671, Q -0.621, M 0.08, N -0.676, H -0.8, C -0.373, T -0.506, V 0.027, S -0.574
A12: Y -0.025, Q -0.131, T -0.389, I -0.363, F -0.465, V -0.041, P -0.448, H -0.217, M -0.587, N -0.331, E -0.267, K -0.146, C -0.185, S -0.068, L -0.272, D -0.226, G 0.089
G19: T -0.782, P -0.897, F -0.794, N -0.676, E -0.4, C -0.918, A -0.091, R -0.722, D -0.362, M -0.525, H -0.642, I -0.769, Y -0.96, W -0.992, S -0.454
Y5: T -0.271, P -0.506, M 0.06, L -0.425, R -0.181, W -0.207, V -0.534, S -0.323, Q -0.357
Q22: R 0.006, F -0.423, E 0.042, H -0.641, N -0.023, S -0.136, A -0.121, Y -0.586, V 0.063, T -0.137, D -0.371, C -0.459, P -0.905, M -0.217, G -0.234, W -0.61, L -0.315
L11: F -0.714, A -0.731, Y -0.57, D -0.429, K -0.469, G -0.678, W -0.381, I -0.061, E -0.483, H -0.559, N -0.79, V -0.192, C -0.429, M -0.625, P -0.636
D20: P -0.252, W -0.143, F 0.15, T -0.339, H -0.043, I -0.579, E -0.162, M -0.29, G -0.254, K -0.287, S -0.295, N -0.264, L -0.383, Y -0.217, V -0.237, C -0.162, R -0.022, A -0.3, Q -0.287
E17: A -0.183, I -0.373, H -0.105, R -0.103, C -0.338, N -0.34, M -0.414, D 0.138, P -0.58, W -0.403, Y -0.838, S -0.151, L -0.577, G -0.346, V -0.237, F -0.263, K 0.063, Q -0.038
